System: MS2 coat protein
Assay: apparent KD of MS2 coat protein; designed switch direction (-1 OFF switch, 1 ON switch): -1; higher = weaker reporter binding
Method in brief: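 Transcription of designed RNA switches on Illumina chips was done by stalled E. coli RNA polymerase. SNAP-549-labelled MS2 coat protein was then titrated in doubling steps from 0.7 or 1.5 nM to 3 µM, with steps of 0.8–1.5 h at the lowest and 10–20 min at the highest concentration. The per-design median over clusters of curve-fitted normalised fluorescence is reported as apparent KD.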

[1] = Eterna round: R95, input ligand: FMN 200 uM
[2] = Eterna round: R95, input ligand: microRNA oligo, concentration not stated
[3] = Eterna round: R95, input ligand: none
[4] = input ligand: microRNA oligo, concentration not stated

Sequence	apparent KD of MS2 coat protein (input ligand: FMN 200 uM) [nM]	apparent KD of MS2 coat protein (input ligand: none) [nM]	apparent KD of MS2 coat protein [1] [nM]	apparent KD of MS2 coat protein [2] [nM]	apparent KD of MS2 coat protein [3] [nM]	apparent KD of MS2 coat protein [4] [nM]
CAAACCAGAGGAUAUGCGCAUAGAUCAGACUUUGUUUCUUAACAUGAGGAUCACCCAUGUAGAAGGCUGUAAAC [Ex2 #74] (Eterna round: R97, puzzle: Exclusion 2)	12.3	13.3	–	–	–	–
UAUUAUGCAAGCAGGUCCCACAUGAGGAUCACCCAUGUGCUCGUCUUAUAAGGUACUGUGACGAAAGUCACGGUACC [Elimod 15 - Jieux - Sensor, turn-off variant 1] (Eterna round: R97, puzzle: Sensor, turn-off variant 1)	37.6	37.9	–	–	–	–
AGGAUGUGAGGAUAUCCAUCCCGCGAAUACGGGUAAUAAAUGGAGAAGGCACAUGAGGAUCACCCAUGUGAUGA [Ceersois] (Eterna round: R97, puzzle: Exclusion 4)	262	54.1	–	–	–	–
AAUAAUUGUGACUUGGGCGACAUGAGGAUCACCCAUGUUACAAGCUUGUUGCUCGUCUUAUAAUUAACCCAUGUCAC [LRO Sensor-off var1-23 mod of Stov1-13-A1 by Brourd] (Eterna round: R97, puzzle: Sensor, turn-off variant 1)	15.8	18.4	–	–	–	–
GAGGAACAUGAGGAUCACCCAUGUAAGGAUAUGCAUAGCGAGGUAGUAGAAGGUGAAGGCAGAAGGUACACGGA [JR_Exclu1_Sub076] (puzzle: Exclusion 1)	–	–	31.3	34.2	43.8	–
AAAAGAAUAGGAUAUACAUGAGGAUCACCCAUGUGAGGGCACGGCCGGCGCGGGCCCGGUAGAAGGAUUCAAAA [Exc;s3-X] (puzzle: Exclusion 3)	–	–	23.1	22.5	25.6	–
ACUUACUGAGGAUAUGCGUGGAUAAACAUGAGGAUCACCCAUGUUCCUAUAAGUAUGUAUGUAGAAGGCAGAAGAA [JR_Ex5_Sub075] (Eterna round: R97, puzzle: Exclusion 5)	60.5	130	–	–	–	–
AAACCUCGUGUAAGGAUAUCAAGGCUUAGCGGGUGUGAGAAGGUACAUGAGGAUCACCCAUGUCAUGAUUUACG [mod2 score 1 eternabot] (Eterna round: R97, puzzle: Brourd's mod of Exclusion 4)	798	252	–	–	–	–
CGUCCUGUAGUCAGGAUAUUGUCUCGGAUACGAAACAAGAAGGGACAUGAGGAUCACCCAUGUAAUCAGGACGA [Malc #30 mod 13] (puzzle: Brourd's mod of Exclusion 4)	–	–	19.5	36.5	36.5	–
AAAUAACAAGCAAAAAACCACAUGAGGAUCACCCAUGUAAAGGGUGAAGUUCGCACCCAAAAAUAAAAUAAAAAAUA [Mat - Sensor v2 - Eli mod - 173] (Eterna round: R96, puzzle: Sensor v2, turn-off variant)	29.1	28.3	–	–	–	75
AAACGGCGGAUCGUGGCUUUUUGCUCGUCUUGUGCUACAACAUGAGGAUCACCCAUGUAGAGGUGAUCCGUUGUAAA [Grok-var2-18 mod JAL] (puzzle: Sensor v3, turn-off variant 2)	–	–	28	17.1	38.3	–
GAUUACAACGAAGACAAGCACAUGAGGAUCACCCAUGUGUAAAAUCGAGUGGGCCCACUCGUACCUCAACACCGUCU [JR_Sensorv2_tov_Sub304] (Eterna round: R96, puzzle: Sensor v2, turn-off variant)	18.9	19.8	–	–	–	15.8
GGUGCGUUUGUGAGGAUAUGCUGGUCCUUGGUUCCGCAGAAGGCACAUGAGGAUCACCCAUGUGGUGUCGUACC [salish99_Bmod_Ex4_044] (puzzle: Brourd's mod of Exclusion 4)	–	–	–	148	–	–
AAGUACCGUCACGAUAGUGAUGGUACAACAGGUAGUGAAACAUGAGGAUCACCCAUGUCCUCAAUUGCUCGUCUUAU [Sensor 3 - 84] (puzzle: Sensor v3, turn-off variant 2)	–	–	773	179	716	–
AGAUCUCAUGACGUUUGCAACAUGAGGAUCACCCAUGUGAGGAGGGUAAACAAACCAAGCUUCGUGCUCGUCUAUAA [Eternabot (Original) Solution 46] (Eterna round: R97, puzzle: Sensor, turn-off variant 1)	38.9	52.3	–	–	–	–
CAUGUGUAAGGAUAUGACAAUGGUAUCUUCGGAUACCAUUGUCAGAAGGUACAUGAGGAUCACCCAUGUAGAUC [Ex4-3: 16] (puzzle: Exclusion 4)	–	–	–	48.6	–	–
CCGUGGCAAGGAUAUACAUAGGAGAGGAAGGCAAGAGGUGGACAUGAGGAUCACCCAUGUAGAAGGUGCAGAUC [JR_Exclu2_Sub027] (puzzle: Exclusion 2)	–	–	–	157	–	–

Sequence	apparent KD of MS2 coat protein (input ligand: FMN 200 uM) [nM]	apparent KD of MS2 coat protein (input ligand: none) [nM]	apparent KD of MS2 coat protein [1] [nM]	apparent KD of MS2 coat protein [2] [nM]	apparent KD of MS2 coat protein [3] [nM]	apparent KD of MS2 coat protein [4] [nM]
UUCGUGUGAGGAUAUCGAUUAUGGAAGUCUAGAUCCAUACGCGAGAAGGCACAUGAGGAUCACCCAUGUAAUGG [jl-ex4-4.34 ViennaUCT mod] (Eterna round: R97, puzzle: Exclusion 4)	38	227	–	–	–	–
UAUAUAUAGUAAGGAUAUGUAUAUAUUUUGUAAACAGAAGGUACUGACAUGAGGAUCACCCAUGUUUUAGUGUGGGCAUGUAGA [JMF's solution 66] (Eterna round: R96, puzzle: Exclusion NG 1)	–	–	–	–	–	60.9
AAAGAACUAGGAUAUACAUGAGGAUCACCCAUGUGCAGCUUAACGGCUCACACCUUAUGUAGAAGGAGUGACCG [Riorenar] (puzzle: Exclusion 3)	–	–	–	16	–	–
AAUAACAGAGGAUAUACGAAAAUAAGCGGAAACGCAAAGGGACAUGAGGAUCACCCAUGUAGAAGGCUGGAUAA [Tetraloop... 61% 2] (Eterna round: R96, puzzle: Exclusion 2)	204	34.2	–	–	–	19.6
UGAGUGCUGCGAGGAUAUACAUGAGGAUCACCCAUGUAAAUGUGUGAGGCUUUGCCUCACACAAUGUAGAAGGCGCAGUACUCU [JL ENG2 1.01] (Eterna round: R96, puzzle: Exclusion NG 2)	–	–	–	–	–	9.17
AUUUAAUUUAAUAAGAUCACAUGAGGAUCACCCAUGUAUAUAUAGGAUAUCAGCUCGUUUAGAGCUGAGAAGGAUAUAUACUAU [ExNG3/7-B2] (Eterna round: R96, puzzle: Exclusion NG 3)	190	278	–	–	–	237
AACCAGCGAGGAUAUUGUCGGUACAACAUGAGGAUCACCCAUGUCACGUGAUCUUCCCAACAAGAAGGUGCACUAC [Axeedesza] (Eterna round: R97, puzzle: Exclusion 5)	324	272	–	–	–	–
GCAUCCAAUGUGAGGAUAUACCUCUGGAUACAUAGGUAGAAGGCACAUGAGGAUCACCCAUGUUCCUAGGAUGC [Fiskers BMX 4 - 31] (puzzle: Brourd's mod of Exclusion 4)	–	–	–	32.9	–	–
GAAAAGGUAGGAUAUACGAAAAAAAAGGGUAGAAAAAGAACACAUGAGGAUCACCCAUGUAGAAGGACCAAAAG [salish99_ex2_r3_020] (puzzle: Exclusion 2)	–	–	72.8	20.9	20.3	–
UUUGUUUUGGUAGGAUAUACUUUUAAUUUCUCUUUCCUUACAUGAGGAUCACCCAUGUUUACAUUGUAGAAGGACCACUUUGUU [JR_ExcNG2_Sub050] (Eterna round: R96, puzzle: Exclusion NG 2)	–	–	–	–	–	15.9
UAAGUUGUGGUAGGAUAUACUUUAAAUUUCUCUAUCCAUACAUGAGGAUCACCCAUGUUUACAUUGUAGAAGGACCUUUUUGUU [JR_ExcNG2_Sub058] (Eterna round: R96, puzzle: Exclusion NG 2)	–	–	–	–	–	19.7
CCGGAAAUGAAGGAUAUAGGUGUCGAUAGACUCCUAGAAGGUCAUACAUGAGGAUCACCCAUGUGUCCUACCGG [Fiskers Ex 6 - 76] (Eterna round: R96, puzzle: Exclusion 6)	36.7	18	–	–	–	13.3
AUUUUAUAUGAAGGAUAUACUUAACAUGAGGAUCACCCAUGUGGUGUUGUGAGUGAGUGAGUUUAGUAGAAGGUCAAUUCUUUU [JMF's solution 98] (Eterna round: R96, puzzle: Exclusion NG 2)	240	288	–	–	–	185
AUUUAAUUUAAUAAGAUCACAUGAGGAUCACCCAUGUAUAUAUAGGAUAUCAGCUCGAUUAGAGCUGAGAAGGAUAUAUACAUG [ExNG3/8-A1] (Eterna round: R96, puzzle: Exclusion NG 3)	48.9	38.1	–	–	–	21.6
CGUAGUCUUCGGACUACGAACAUGAGGAUCACCCAUGUAAUGAGCAGAUCUUCAUGCAAGCUUUUUGCUCGUCUUAU [Sensor v3 - turn-off variant 1 - 43] (puzzle: Sensor v3, turn-off variant 1)	–	–	148	14.7	227	–
GGUUGGCGAGGAUAUACAUGAGGAUCACCCAUGUGAGUGAAAAAAGUGAGGAAGAAAAGUAGAAGGCGCUGACG [salish99_ex3_r3_008] (puzzle: Exclusion 3)	–	–	288	254	196	–
CCUCUACAUGAGGAUCACCCAUGUCAGGAUAUCGUGUGUUUUUUUUCGGCCGCGCGUGCGAGAAGGGACGUCUU (puzzle: Exclusion 1)	–	–	–	30.1	–	–

Reference: the supplement of paper PMC9170038
